We go through 94 variants from the supplement of paper PMC10567573.

To fix the notation:
B1: CLPTM1 (parent)
chain: LGCYAVYSLLYLEHKGWYSWVLSM
B2: CIB1 (parent)
chain: DLSRLVNCLTGEGEDTRLSASEMK
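Also: lentivirally expressed fusions sorted by FACS into six bins by GFP to DsRed ratio, PSI derived from sequencing read proportions per bin multiplied by bin number.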

Variants of B1 are the subject of the first data set. Description: protein stability index of a GFP-peptide fusion (GPS, HEK-293T) (PSI 1-6); higher = more stable. Particulars: c terminus: a fixed tail appended.
Turning to LGCYAVYSLLYLEHKGWYSQVLSM [W20Q], the protein stability index is 2.07.

As to LGCYAVYSLLYLEHKGWYSDVLSM [W20D], the protein stability index is 2.14.

As to LGCYAVYSLLYLEHKGWYSMVLSM [W20M], the protein stability index came to 3.21.

Regarding LGCYAVYSLLYLEHKGWYSRVLSM [W20R], the protein stability index worked out at 2.84.

Turning to LGCYAVYSLLYLEHKGWYSGVLSM [W20G], the protein stability index was 2.21.

Take LGCYAVYSLLYLEHKGWYSTVLSM [W20T]: the protein stability index is 2.45.

Consider LGCYAVYSLLYLEHKGWYSIVLSM [W20I], for which the protein stability index is 3.33.

As for LGCYAVYSLLYLEHKGWYSKVLSM [W20K], the protein stability index worked out at 2.65.

On to LGCYAVYSLLYLEHKGWYSPVLSM [W20P], for which the protein stability index turned out to be 3.37.

For the variant LGCYAVYSLLYLEHKGWYSHVLSM [W20H], the protein stability index was determined as 1.87.

In the case of LGCYAVYSLLYLEHKGWYSEVLSM [W20E], the protein stability index worked out at 3.54.

LGCYAVYSLLYLEHKGWYSNVLSM [W20N]: the protein stability index stood at 3.58.

LGCYAVYSLLYLEHKGWYSSVLSM [W20S]: the protein stability index is 2.21.

Consider LGCYAVYSLLYLEHKGWYSVVLSM [W20V], for which the protein stability index turned out to be 3.55.

As for LGCYAVYSLLYLEHKGWYSLVLSM [W20L], the protein stability index was 2.91.

Turning to LGCYAVYSLLYLEHKGWYSFVLSM [W20F], the protein stability index was determined as 1.72.

As to LGCYAVYSLLYLEHKGWYSCVLSM [W20C], the protein stability index amounted to 3.98.

For LGCYAVYSLLYLEHKGWYSWVASM [L22A], the protein stability index was 3.33.

With LGCYAVYSLLYLEHKGWYSWVWSM [L22W], the protein stability index worked out at 2.58.

On to LGCYAVYSLLYLEHKGWYSWVQSM [L22Q], for which the protein stability index was determined as 2.18.

In the case of LGCYAVYSLLYLEHKGWYSWVYSM [L22Y], the protein stability index came out at 3.5.

LGCYAVYSLLYLEHKGWYSWVFSM [L22F]: the protein stability index came to 3.46.

In the case of LGCYAVYSLLYLEHKGWYSWVGSM [L22G], the protein stability index came to 1.72.

With LGCYAVYSLLYLEHKGWYSWVRSM [L22R], the protein stability index worked out at 2.45.

As to LGCYAVYSLLYLEHKGWYSWVSSM [L22S], the protein stability index was determined as 3.49.

Regarding LGCYAVYSLLYLEHKGWYSWVMSM [L22M], the protein stability index turned out to be 2.11.

On to LGCYAVYSLLYLEHKGWYSWVESM [L22E], for which the protein stability index was found to be 3.17.

Regarding LGCYAVYSLLYLEHKGWYSWVCSM [L22C], the protein stability index worked out at 4.24.

Turning to LGCYAVYSLLYLEHKGWYSWVTSM [L22T], the protein stability index is 1.98.

Turning to LGCYAVYSLLYLEHKGWYSWVKSM [L22K], the protein stability index was 2.01.

Turning to LGCYAVYSLLYLEHKGWYSWVISM [L22I], the protein stability index came to 3.34.

With LGCYAVYSLLYLEHKGWYSWVPSM [L22P], the protein stability index worked out at 3.42.

With LGCYAVYSLLYLEHKGWYSWPLSM [V21P], the protein stability index came to 3.65.

As to LGCYAVYSLLYLEHKGWYSWILSM [V21I], the protein stability index is 1.96.

In the case of LGCYAVYSLLYLEHKGWYSWSLSM [V21S], the protein stability index turned out to be 3.6.

Take LGCYAVYSLLYLEHKGWYSWALSM [V21A]: the protein stability index amounted to 2.45.

On to LGCYAVYSLLYLEHKGWYSWMLSM [V21M], for which the protein stability index turned out to be 2.45.

Consider LGCYAVYSLLYLEHKGWYSWRLSM [V21R], for which the protein stability index was 1.99.

For the variant LGCYAVYSLLYLEHKGWYSWYLSM [V21Y], the protein stability index stood at 2.63.

On to LGCYAVYSLLYLEHKGWYSWWLSM [V21W], for which the protein stability index came to 3.42.

LGCYAVYSLLYLEHKGWYSWDLSM [V21D]: the protein stability index is 1.56.

LGCYAVYSLLYLEHKGWYSWELSM [V21E]: the protein stability index was 3.46.

For the variant LGCYAVYSLLYLEHKGWYSWGLSM [V21G], the protein stability index worked out at 2.62.

As for LGCYAVYSLLYLEHKGWYSWKLSM [V21K], the protein stability index was 2.12.

Take LGCYAVYSLLYLEHKGWYSWLLSM [V21L]: the protein stability index was 2.77.

As for LGCYAVYSLLYLEHKGWYSWHLSM [V21H], the protein stability index was determined as 2.45.

As to LGCYAVYSLLYLEHKGWYSWTLSM [V21T], the protein stability index is 2.31.

For LGCYAVYSLLYLEHKGWYSWFLSM [V21F], the protein stability index was determined as 2.12.

Consider LGCYAVYSLLYLEHKGWYSWCLSM [V21C], for which the protein stability index came to 4.16.

In the case of LGCYAVYSLLYLEHKGWYSWNLSM [V21N], the protein stability index turned out to be 3.02.

For LGCYAVYSLLYLEHKGWYYWVLSM [S19Y], the protein stability index turned out to be 2.62.

Consider LGCYAVYSLLYLEHKGWYSWVLSN [M24N], for which the protein stability index came out at 2.39.

With LGCYAVYSLLYLEHKGWYSWVLSD [M24D], the protein stability index came out at 2.05.

Take LGCYAVYSLLYLEHKGWYSWVLSE [M24E]: the protein stability index turned out to be 5.08.

As for LGCYAVYSLLYLEHKGWYSWVLSL [M24L], the protein stability index is 2.6.

For LGCYAVYSLLYLEHKGWYSWVLSQ [M24Q], the protein stability index was 3.62.

On to LGCYAVYSLLYLEHKGWYSWVLSI [M24I], for which the protein stability index is 2.67.

In the case of LGCYAVYSLLYLEHKGWYSWVLSW [M24W], the protein stability index amounted to 3.77.

Take LGCYAVYSLLYLEHKGWYSWVLSH [M24H]: the protein stability index was found to be 3.76.

Consider LGCYAVYSLLYLEHKGWYSWVLSS [M24S], for which the protein stability index stood at 2.46.

Turning to LGCYAVYSLLYLEHKGWYSWVLSV [M24V], the protein stability index turned out to be 3.57.

LGCYAVYSLLYLEHKGWYSWVLST [M24T]: the protein stability index came to 2.61.

With LGCYAVYSLLYLEHKGWYSWVLSR [M24R], the protein stability index was 2.3.

As for LGCYAVYSLLYLEHKGWYSWVLSK [M24K], the protein stability index came to 3.6.

Turning to LGCYAVYSLLYLEHKGWYSWVLSC [M24C], the protein stability index came out at 4.42.

Regarding LGCYAVYSLLYLEHKGWYSWVLSY [M24Y], the protein stability index amounted to 2.41.

For LGCYAVYSLLYLEHKGWYSWVLSF [M24F], the protein stability index was determined as 4.41.

As for LGCYAVYSLLYLEHKGWYSWVLSG [M24G], the protein stability index was 4.14.

With LGCYAVYSLLYLEHKGWYSWVLSP [M24P], the protein stability index was 3.83.

On to LGCYAVYSLLYLEHKGWYSWVLSA [M24A], for which the protein stability index is 2.39.

On to LGCYAVYSLLYLEHKGWYSWVLIM [S23I], for which the protein stability index was found to be 3.17.

In the case of LGCYAVYSLLYLEHKGWYSWVLNM [S23N], the protein stability index turned out to be 2.27.

As to LGCYAVYSLLYLEHKGWYSWVLCM [S23C], the protein stability index turned out to be 3.78.

For LGCYAVYSLLYLEHKGWYSWVLTM [S23T], the protein stability index was 1.72.

On to LGCYAVYSLLYLEHKGWYSWVLFM [S23F], for which the protein stability index is 2.11.

Take LGCYAVYSLLYLEHKGWYSWVLVM [S23V]: the protein stability index worked out at 1.82.

As for LGCYAVYSLLYLEHKGWYSWVLGM [S23G], the protein stability index is 2.17.

As to LGCYAVYSLLYLEHKGWYSWVLYM [S23Y], the protein stability index amounted to 2.49.

Take LGCYAVYSLLYLEHKGWYSWVLRM [S23R]: the protein stability index amounted to 2.26.

Regarding LGCYAVYSLLYLEHKGWYSWVLQM [S23Q], the protein stability index came out at 3.11.

Turning to LGCYAVYSLLYLEHKGWYSWVLPM [S23P], the protein stability index is 4.18.

Consider LGCYAVYSLLYLEHKGWYSWVLHM [S23H], for which the protein stability index is 2.63.

As for LGCYAVYSLLYLEHKGWYSWVLLM [S23L], the protein stability index amounted to 2.41.

For the variant LGCYAVYSLLYLEHKGWYSWVLWM [S23W], the protein stability index was 3.03.

As to LGCYAVYSLLYLEHKGWYSWVLMM [S23M], the protein stability index is 3.15.

Another data set covers variants of B2. The description is as above. As to conditions: c terminus: a fixed tail appended.
Take DLGRLVNCLTGEGEDTRLSASEMK [S3G]: the protein stability index came to 3.72.

As to DLIRLVNCLTGEGEDTRLSASEMK [S3I], the protein stability index was 1.2.

For DLNRLVNCLTGEGEDTRLSASEMK [S3N], the protein stability index came to 2.39.

Consider DLCRLVNCLTGEGEDTRLSASEMK [S3C], for which the protein stability index was found to be 2.98.

On to DLWRLVNCLTGEGEDTRLSASEMK [S3W], for which the protein stability index was 1.38.

As for DLMRLVNCLTGEGEDTRLSASEMK [S3M], the protein stability index was 3.1.

Regarding DLYRLVNCLTGEGEDTRLSASEMK [S3Y], the protein stability index is 2.79.

As for DLQRLVNCLTGEGEDTRLSASEMK [S3Q], the protein stability index came to 2.84.

For DLLRLVNCLTGEGEDTRLSASEMK [S3L], the protein stability index was found to be 2.2.
